“Also recorded” adds a separate entry of the source.
Columns and labels:
A375.S2 melanoma cells = assay: cell viability, WST-1 assay; format: cell-based, human; settings: WST-1, 72 hrs
Method: FIG. 19, comprising FIGS. 19A through 19D, is a series of images and charts showing that inhibition of RNLS signaling is cytotoxic to melanoma cells in vitro. […] FIG. 19B comprises two charts depicting relative cell viability: Left panel: Cells were treated with indicated antibodies for 72 hrs and cell viability was determined using WST-1; m28-RNLS (also known as 1D-28-4), m37-RNLS (also known as 1D-37-10): monoclonal antibodies raised against RNLS peptide RP220; Right panel: A375.S2 cells treated with increasing doses of m28-RNLS for 72 hrs and cell viability determined with a WST-1 assay; n=6, * indicates p<0.05 and ** indicates p<0.005. FIG. 19C comprises representative photos of A375.S2, SkMel28, and SkMel5 after 72 hrs incubation with either control rabbit IgG or m28-RNLS. FIG. 19D is a chart depicting relative cell viability, comprising amino acid (AA) sequence of RNLS peptide antagonist (RP220A).
Total cell number and percentage of live cells were assessed by trypan blue exclusion, and cells were counted using a BioRad TC10 automated cell counter. For additional studies, cell viability was determined using WST-1 reagent (Roche Diagnostics, Indianapolis, Ind., USA) according to the manufacturers' instruction. Absorbances were read using a microplate reader (Power Waves XS, BioTek Instruments, Winooski, Vt., USA).

A375.S2 xenograft tumors = format: in vivo
Method: Briefly, tumor tissues were formalin-fixed, paraffin-embedded and cut into 5-m sections on glass slides. The slides were de-paraffinized and hydrated, followed by antigen retrieval in a pressure cooker containing 10 mM sodium citrate, pH6 buffer. The sections were blocked in 3% hydrogen peroxide for 30 min and 2.5% normal horse serum in PBS/0.1% Tween20 for 1 h followed by incubation with primary antibody and isotype control IgG overnight at 4° C. The following antibodies were used in this study: m28-RNLS at 500 ng/ml; goat polyclonal anti-RNLS at 250 ng/ml (Abcam, ab31291); rabbit monoclonal anti-CD68 (BDBioscience, 1:100); rabbit monoclonal anti-CD163 (AbD Serotec, 1:100); rabbit monoclonal anti-CD86 (Abcam, 1:100); rabbit monoclonal anti-Ki67 (Vector Lab, VP-RM04, 1:100); rabbit monoclonal anti-p21, […], and total Stat3 (Cell Signaling Technologies, #2947, 1:100, #9145, 1:400, and #4904, 1:400, respectively). ImmPRESS peroxidase-anti-rabbit IgG (Vector Laboratories, Burlingame, Calif., USA) was used to detect primary antibodies. […] Slides were observed and photographed using an Olympus BX41 microscope and camera (Olympus America Inc, Center Valley, Pa., USA).
Female athymic, 18-20 g nude mice (nu/nu) were obtained from Charles River (Willimantic, Conn.) and housed in microisolator cages, with autoclaved bedding in a specific pathogen-free facility, with a 12-h light/dark cycle.
Xenograft tumors were established by subcutaneous injection of A375.S2 cells (2×10^6 in 100 μl of PBS, pH 7.6). When the tumors reached a volume of 50-100 mm^3, the mice were divided into a control group (n=14 treated with rabbit IgG, 40 μg by intraperitoneal injection (IP) once weekly, and 40 ug subcutaneously (SQ) around the tumor site every 3 days), and an experimental group (n=14) that received m28-RNLS (40 μg IP, once weekly, and 40 ug SQ, every 3 days). Tumor size was measured with digital calipers and volume was calculated according to the formula (length×width^2)×π/2.
At the end of the study, the mice were sacrificed, the tumors were excised and immediately snap-frozen in liquid nitrogen and stored at −80° C. Apoptosis was examined using the TUNEL assay (Roche in situ Apoptosis Detection System), according to the manufacturer's instructions. Sections were examined by light microscopy and the apoptosis index was determined by counting ≥1000 cells in 10 randomly selected high-power fields (×200 magnification).

Panc1 cells = assay: FACS analysis of apoptosis and cell cycle; format: cell-based, human; settings: 30 μg/ml
Method: For cell cycle analysis, cultured cells were dissociated using 10 mM EDTA, fixed with ice-cold 70% ethanol, digested with RNAse A, and stained with propidium iodide. Propidium staining was detected using a BD FACSCalibur flow cytometer (BD Biosciences, San Jose, Calif., USA), and analyzed using CellQuest software.
Apoptosis was detected and quantified as previously done (Guo et al., 2012 Cancer Science. 103(8):1474-80). In brief, cells were stained with FITC-labeled Annexin-V and propidium iodide according to the manufacturer's instructions (Bender MedSystems, Burlingame, Calif., USA). At least 20,000 events were collected on a BD FACSCalibur flow cytometer (BD Biosciences, San Jose, Calif., USA) and analyzed using CellQuest software.

[1] = immunofluorescence / western blot

B1: m28-RNLS: rabbit anti-renalase monoclonal raised against RNLS peptide RP-220; heavy chain SEQ ID NO:9, light chain SEQ ID NO:10 (antibody)
heavy: METGLRWLLLVAVLKGVQCQSVEESGGRLVTPGTPLTLTCTVSGFSLSSFAVGWVRQAPGKGLEYIGIISSVGITRYASWAAGRFTISKTSTTVDLKITSPTTEDTATYFCARYGYSGDVNRLDLWGQGTLVTVSSGQPKAPSVFPLAPCCGDTPSSTVTLGCLVKGYLPEPVTVTWNSGTLTNGVRTFPSVRQSSGLYSLSSVVSVTSSSQPVTCNVAHPATNTKVDKTVAPSTCSKPTCPPPELLGGPSVFIFPPKPKDTLMISRTPEVTCVVVDVSQDDPEVQFTWYINNEQVRTARPPLREQQFNSTIRVVSTLPIAHQDWLRGKEFKCKVHNKALPAPIEKTISKARGQPLEPKVYTMGPPREELSSRSVSLTCMINGFYPSDISVEWEKNGKAEDNYKTTPAVLDSDGSYFLYSKLSVPTSEWQRGDVFTCSVMHEALHNHYTQKSISRSPGK
light: MDTRAPTQLLGLLLLWLPGATFAQVLTQTASPVSAAVGGTVTINCQASQSVYDNNNLAWYQQKPGQPPKQLIYGASTLASGVSSRFKGSGSGTQFTLTISGVQCDDAATYYCLGEFSCSSADCFAFGGGTEVVVKGDPVAPTVLIFPPSADLVATGTVTIVCVANKYFPDVTVTWEVDGTTQTTGIENSKTPQNSADCTYNLSSTLTLTSTQYNSHKEYTCKVTQGTTSVVQSFNRGDC
modifications: 1D-28-4 full length heavy chain amino acid; 1D-28-4 full length light chain amino acid
A375.S2 melanoma cells
  cell viability: increasing levels of cytotoxicity in correlation with increasing treatment concentrations
A375.S2 xenograft tumors; immunofluorescence
  number of CD163+ TAMs: considerable decrease; also recorded: decreases
A375.S2 xenograft tumors; [1]
  RNLS protein expression in tumors: dramatic reduction; also recorded: decreases; also recorded: marked reduction
  total and phosphorylated STAT3 (p-Y705-STAT3) in tumors: significantly decreased; also recorded: marked reduction
A375.S2 xenograft tumors; mouse, in vivo
  ratio of CD86+ to CD163+ TAMs: increases
A375.S2 xenograft tumors; n=14, control 4.3±0.2
  TUNEL positive cells (apoptosis): 13.3±0.6 positive cells
A375.S2 xenograft tumors; n=14, control 12.2±1.0
  p21 positive cells (cell cycle regulator, IHC): 24.2±2.4 positive cells
A375.S2 xenograft tumors; n=14, control 35.1±2.3
  Ki67 positive cells (cellular proliferation marker, IHC): 13.4±3.0 positive cells/high power field
A375.S2 xenograft tumors; qPCR, human specific primers
  human (tumor) RNLS expression in tumor mass: without affecting
A375.S2 xenograft tumors; qPCR, mouse specific primers
  mouse (endogenous) RNLS expression in tumor mass: significant reduction
A375.S2 xenograft tumors; throughout the study
  toxicity (overall animal health and activity): did not appear to be toxic
A375.S2 xenograft tumors; vs control rabbit IgG, 40 μg IP weekly and 40 ug SQ every 3 days
  tumor volume: decreased tumor volume at all points tested
Panc1 cells
  cell cycle (FACS): pre-G2 cell cycle arrest
Panc1 cells; 4 days
  apoptosis (FACS): caused apoptosis
